Test results as given in patent US20200369755A1 (PROTHENA BIOSCIENCES, published 2020).
Where no end group is shown, it is not given here.

Assays:
Test in all cases: peptide ELISA, biotinylated peptide on streptavidin plate; background-subtracted absorbance; positive from 0.2
127-141 = target: T1, 127-141 (also: biotinylated, site not given here)
T1 peptide: SGEPPKSGDRSGYSS
Description: (§1) Additional peptides were used to model potential post-translational modifications of the C- and N-terminal ends of the protein.
(§2) Biotinylated peptides were bound to separate wells of a streptavidin-coated ELISA plate. The plate was blocked and treated with murine 3D6, followed by incubation with a horseradish peroxidase-conjugated anti-mouse antibody. After thorough washing, OPD was applied to the plate and allowed to develop. The plate was read at 450 nm absorbance. Background subtraction was performed with absorbance values from wells containing no primary antibody, and a threshold for positive binding was set to 0.2 absorbance units. […] (FIG. 1)

235-249 = target: T2, 235-249 (also: biotinylated, site not given here)
T2 construct: also called tau peptide 235-249 (4R0N numbering)
T2 peptide: SKDNIKHVPGGGSVQ
Description: as §1, §2

253-267 = target: T3, 253-267 (also: biotinylated, site not given here)
T3 construct: also called tau peptide 253-267 (4R0N numbering)
T3 peptide: KPVDLSKVTSKCGSL
Description: as §1, §2

10-24 = target: T4, 10-24 (also: biotinylated (site not given here))
T4 construct: also called tau peptide 10-24 (4R0N numbering)
T4 peptide: VMEDHAGTYGLGDRK
Description: as §1, §2

280-294 = target: T5, 280-294 (also: biotinylated, site not given here)
T5 construct: also called tau peptide 280-294 (4R0N numbering)
T5 peptide: EVKSEKLDFKDRVQS
Description: as §1, §2

343-357 = target: T6, 343-357 (also: biotinylated, site not given here)
T6 construct: also called tau peptide 343-357 (4R0N numbering)
T6 peptide: GDTSPRHLSNVSSTG
Description: as §1, §2

361-375 = target: T7, 361-375 (also: biotinylated, site not given here)
T7 peptide: MVDSPQLATLADEVS
Description: as §1, §2

28-42 = target: T8, 28-42 (also: biotinylated, site not given here)
T8 construct: also called tau peptide 28-42 (4R0N numbering)
T8 peptide: GYTMHQDQEGDTDAG
Description: as §1, §2

55-69 = target: T9, 55-69 (also: biotinylated, site not given here)
T9 construct: also called tau peptide 55-69 (4R0N numbering)
T9 peptide: SLEDEAAGHVTQARM
Description: as §1, §2

Measured: binding result

B1: murine 3D6 monoclonal antibody (antibody, IgG1, V domains shown)
VH: EVQLQQSGADLVRPGALVKLSCKASGFNIKDYYLHWVRQRPEQGLEWIGWIDPENGDTVYDPKFQGKATITADTSSNTAYLQLGSLTSEDTAVYFCSTLDFWGQGTTLTVSS
VL: not shown
notes: Hybridoma-derived mouse antibody; also called m3D6; mouse 3D6
no binding: 127-141 | 235-249 | 253-267 | 10-24 | 280-294 | 343-357 | 361-375 | 28-42 | 55-69
